# Measurements from the RNAGym collection of RNA variant scans (doi:10.1073/pnas.2313332121).
# Fewer inactive variants are shown than the library holds.
# B1: TPR 5TU (parent)
# chain: GGAUCUUCUCGAUCUAACAAAAAAGACAAAUCUGCCACAAAGCUUGAGAGCAUCUUCGGAUGCAGAGGCGGCAGCCUUCGGUGGCGCGAUAGCGCCAACGUUCUCAACUAUGACACGCAAAACGCGUGCUCCGUUGAAUGGAGUUUAUCAUG
# Variants of: B1
# Assay: polymerase ribozyme fitness, log enrichment relative to wild type (log ratio); higher = more active; in vitro selection for triplet polymerase activity
# Method in brief: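 One round of in vitro selection, in triplicate, was applied to PCR-built, transcribed mutant libraries of each subunit of a heterodimeric triplet polymerase ribozyme. The steps were annealing with a biotinylated primer, partner subunit and triplets, incubation frozen at −7 °C, gel excision of extended constructs, streptavidin-bead capture and RT-PCR. Fitness is the logarithm, base 2, of genotype enrichment over wild-type enrichment from inverse-variance-weighted replicate averages of Illumina-sequenced inputs and outputs, keeping genotypes with ≥10 input reads and ≥1 read per output.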
row,Variant,polymerase ribozyme fitness (log ratio)
1,GGAUGUUCUCGAUCUAACAAAAAAGACAAAUCUGCCACAAAGCUUGAGAGCAUCUUCGGAUGCAGAGGCGGCAGCCUUCGGUGGCGAGAUAGCGCCAACGUUCUCAACUAUGACACGCAAAACGCGUGCUCCGUUGAAUGGAGUUUAUCAUG [C5G C87A],≤ -4.2
2,GGAUGUUCUCGAUCUAACAAAAAAGACAAAUCUGCCACAAAGCUUGAGAGCAUCUUCGGAUGCAGAGGCGGCAGCCUUCGGUGGCGUGAUAGCGCCAACGUUCUCAACUAUGACACGCAAAACGCGUGCUCCGUUGAAUGGAGUUUAUCAUG [C5G C87U],-0.787
3,GGAUGUUCUCGAUCUAACAAAAAAGACAAAUCUGCCACAAAGCUUGAGAGCAUCUUCGGAUGCAGAGGCGGCAGCCUUCGGUGGUGCGAUAGCGCCAACGUUCUCAACUAUGACACGCAAAACGCGUGCUCCGUUGAAUGGUGUUUAUCAUG [C5G C85U A142U],-1.45
4,GGAUGUUCUCGAUCUAACAAAAAAGACAAAUCUGCCACAAAGCUUGAGAGCAUCUUCGGAUGCAGAGGCGGCAGCCUUCGGUGGCGCGAUAGGGCCAACGUUCUCAACUAUGACACGCAAAACGCGUGCUCCGUUGAAUGGAGUUUAUCAUG [C5G C93G],-2.51
5,GGAUGUUCUCGAUCUAACAAAAAAGACAAAUCUGCCACAAAGCUUGAGAGCAUCUUCGGAUGCAGAGGCGGCAGCCUUCGGUGGCGCGAUAGUGCCAACGUUCUCAACUAUGACACGCAAAACGCGUGCUCCGUUGAAUGGAGUUUAUCAUG [C5G C93U],-2.31
6,GGAUGUUCUCGAUCUAACAAAAAAGACAAAUCUGCCACAAAGCUUGAGAGCAUCUUCGGAUGCAGAGGCGGCAGCCUUCGGUGGCGCGAUAACGCAAACGUUCUCAACUAUGACACGCAAAACGCGUGCUCCGUUGAAUGGAGUUUAUCAUG [C5G G92A C96A],-3.11
7,GGAUGUUCUCGAUCUAACAAAAAAGACAAAUCUACCAUAAAGUUUGAGAGCAUCUUCGGAUGCAGAGGCGGCAGCCUUCGGUAGCGCGAUAGCGCCAACGUUCUCAACUAUGACACGCAAAACGCGUGCUCCGUUGAAUGGAGUUUAUCAUG [C5G G34A C38U C43U G83A],≤ -4.2
8,GGAUGGGCUCGAUGUAACAAAAAAGACCACUCUGCCACAAAGCUUGAGACGAUCUUCGGAUGCAGAGGCGGCAGCCUUCGGUGGCGCGGUAGGUCCAACGUUCUUAACUAUGACACGAAAAACGCGUGCUCCAUUGAAUGGAGUUUAUCAUG [C5G U6G U7G C14G A28C A30C G50C C51G A89G C93G G94U C105U C118A G133A],≤ -4.2
9,GGAUGUUCUCGAUCUAACAAAAAAGACAAAUCUGCCACAAAGCUUGAGACCAUCUUCGGAUGCAGAGGCGGCAGCCUUCGGUGGCGCGAUAGCGCCAACGUUCUCAACUAUGACACGCAAAACGCGUGCUCCGUUGAAUGGAGUUUAUCAUG [C5G G50C],-3.2
10,GGAUGUUCUCGAUCUAACAAAAAAGACAAAUCUGCCACAAAGCUUGAGAGCAUCUUCGGAUGCAGAGGCGGCAGCCUUCGGUGACGCGAUAGCGCCAACGUUCUCAACUAUGACACGCAAAACGCGUGCUCCGUUGAAUGGAGUUUAUCAUG [C5G G84A],-0.0388
11,GGAUGUUCUCGAUCUAACAAAAAAGACAAAUCUGCCACAAAGCUUGAGAGCAUCUUCGGAUGCAGAGGCGGCAGCCUUAGGUGGCGCGAUAGCGCAAACGUUCUCAACUAUGACACGCAAAACGCGUGCUCCGUUGAAUGGAGUUUAUCAUG [C5G C79A C96A],≤ -4.2
12,GGAUGUUCUCGAUCUAACAAAAAACACCAAUCUGCCACAAAGCUUGAGAGCAUCUUGAGAUGCAGAGGCGGCAGCGUUCGGUGGCGCGAUAGCGCCAACGUUCUCAACUAUGACACGCAAAACGCGUGCUCCGUUGAAUGGAUUUUAUCAUG [C5G G25C A28C C57G G58A C76G G143U],≤ -4.2
13,GGAUGCUCUCGAUCUAACAAAAAAGACAAAUCUGCCACAAAGCUUGAGAACAUCUUCGGAUGCAGAGGCGGCAGCCUUCGGUGGCGCGAUAGCGCCAACGUUCUCAACUAUGACACGCAAAACGCGUGCUCCGUUGAAUGGAGUUUAUCAUG [C5G U6C G50A],-2.74
14,GGAUGUUCUCAAUCUAACAAAAAAGACAAAUCUGCCACAAAGCUUGAGAGCAUCUUCGGAUGCAGAGGCGGCGGCUUUCGGUGGCGCGAUAGCGCCAACGUUCUCAACUAUGACACGCAAAACGCGUGCUCCGUUGAAUGGAGUUUAUCAUG [C5G G11A A73G C76U],-2.17
15,GGAUGUUCUCGAUCUAACAAAAAAGACAAAUCUGCCACAAAGCUUGAGAGCAUCUUCGGAUGCAGAGGCGGCAGCCUUCGGUGGCGCGAUAGCCCCAACGGUCUCAACUAUGACACGCAAAACGCGUGCUCCGUUGAAUGGAGUUUAUCAUG [C5G G94C U101G],-2.68
16,GGAUGGUCUCGAUCUAACAAAAAAGACAAAUCUGCCAUAAUGCUUGUGAGCAUCUUCGGAUGCAGAGGCGGCAGCCUUCGGUGGCACGAUCGCGCCAACGUUCUCAACUAUGACACGCAAAACGCGUGCUCCGUUGAAUGGAGUUUAUCAUG [C5G U6G C38U A41U A47U G86A A91C],≤ -4.2
17,GGAUGUUCUCGAUCUAACAAAAAAGACAAAUCUGCCACAAAGCUUGAGAUCAUCUUUGGAUGCAGAGGCGGCAGCCUUCGGUGGCGCGAUACCGCCAACGUUCUCAACUAUGACACGCAGAACGCGUGCUCCGUUGAAUGGAGUUUAUCAUG [C5G G50U C57U G92C A120G],-2.75
18,GGAUGUUCUCGAUCUAACAAAAAAGACAAAUCUGCCACAAAGCUUGAGAGCAUCUUCGUAUGCAGAGGCGGCAGCCUUCGGUGGCGCGAUAGCGCCAAUGUUCUCAACUAUGACACGCGAAACGCGUGCUCCGUUGAAUGGAGUUUAUCAUG [C5G G59U C99U A119G],-1.53
19,GGAUGUUCUCGAUCUAACAAAAAAGACAAAUCUGCCACAAAGCUUGAGAGCAUCUUCGGAUGCAGAGGCGGCAGCCUUCGGUAGCGCGAUAGCGCCAACGUUCUCAACUAUGACACGCAAAACGCGUGCUCCGUUGAAUGGAGUUUAUCAUG [C5G G83A],-1.24

row,Variant,polymerase ribozyme fitness (log ratio)
1,GGAUGUUCUCGAUCUAACAAAAAAGACAAAUCUACCACAAAGCUUGAGAGCAUCUUCGGAUGCAGAGGCGGCAGCCUUCGGUGGCGCGAUAGCGCCAACGUUCUCAACUAUGACACGCAAAACGCGUGCUCCGAUGAAUGGAGUUUAUCAUG [C5G G34A U134A],-3.83
2,GGAUGUUCUCGAUCUAACAAAAAAGACAAAUCUGCCACAAAGCUUGAGAGCAUCUUCGGAUGCAGAGGCGUCAGCCUUCGGUGGCGCGAUAGCGCCAACGUUCUCAACUAUGACACGCAAAACGCGUGCUCCGUUGAAUGGAGUUUAUCAUG [C5G G71U],-3.09
3,GGAUGUUCUCGAUCUAACAAAAAAGACAAAUCUGCCACAAAGCUUGAGAGCAUCUUCGGAUGCAGAGGCGGCAGCCUUCGGUGGCGCGAUAGCGCAAACGUUCUCAACUAUGACACACAAAACGCGUGCUCCGUUGAAUGGAGUUUAUCAUG [C5G C96A G117A],-0.406
4,GGAUGUUCUCGAUCUAACAAAAAAGACAAAUCUGCCACAAAGCUUGAGAGCAUCUUCGGAUGCAGAGGCGGCAGCCUUCGGUGGCGCGAUAGCGCCAACGUUCUCAACUAUGACACGCAAAACGCGUGCUCUGUUGAAUGGAGUUGAUCAUG [C5G C132U U146G],-3.69
5,GGAUGUUCUCGAUCUAACAAAAAAGACAAAUCUGCCACAAAGCUUGAGAGCAUCUUCGGAUGCAAGGGCGGCAGCCUUCGGUGGCGCGAUAGCGCCAACGUUCUCAACUAUGACACGCAAAACGCGUGCUCCGUUGCAUGCAGUUUAUCAUG [C5G G65A A66G A137C G141C],≤ -4.2
6,GGAUGUACUCGAUCUAACAAAAAAGACAAAUCUGCCACAAAGCUUGAGAGCAUCUACGGAUGCAGAGGCGGCAGCCUUCGGUGGCGCGAUCGCGCCAACGUUCUCGACUAUGACACGCAAAACGAGUGCUCCGUUAAAUGGAGUAUAUCAUG [C5G U7A U56A A91C A106G C125A G136A U145A],≤ -4.2
7,GGAUGUUCUCGAUCUAACAAAAAAGACAAAUCUGCCACAAAGCUUUAGAGCAUCUUCGGAUGCAGAGGCGGCAGCCUUCGUUGGCGUAAUAGCGCCAUCGUUCUCAACUAUGACACGCAAAACGUGUGCUCCGUUGAAUGGAGUUUAUCAUG [C5G G46U G81U C87U G88A A98U C125U],≤ -4.2
8,GGAUGUUCUCGAUCUAACAAAAAAGACAAAUCUGCCACAAAGCUUGAGAACAUCUUCGGAGACAGCGGCGGCAGCCUUCGGUGGCGCGAUAGCGCAAACGUUCUCAACUAUGACACGCAAAACGCGUGCUCCGUUGAAUGGAGUUAAUCAUG [C5G G50A U61G G62A A66C C96A U146A],≤ -4.2
9,GGAUGUUCUCGAUCUAACAAAAAAGACAAAUCUGCCACAAAGCUUAAGAGCAUCUUCGGAUGCAGAGGCGGCAGCCUUCGGUGGCGCAAUAGCGGCAACGUGCUCAACUAUGACACGCAAAACGCGUGCUCCGUCGAAUGGAGUUUCUCAUG [C5G G46A G88A C95G U102G U135C A147C],≤ -4.2
10,GGAUGUUCUCGAUCUAACAAAAAAGACAAAUCUGCCACAAAGCUUAAGAGCAUCUUCGGAUGCAGAGGCGGCAGCCUUCGGUGGCGCGAUACCGCCAACGUUCUCAACUAUGACACGCAAAACGCGUGCUCCGUUGAAUGGAGUUUAUCAUG [C5G G46A G92C],-4.13
11,GGAUGUUCUCGAUCUAACAAAAAAGACAAAUCUGCCACAAAGCUUGAGAACAUCUUCGGAUGCAGAGGCGGCAGCCUUCGGUGGCGUGAUAGCGCCAACGUUGUCAACUACGACACGCAAAACGCGUGCUCUGUUGAAUGGAGUUUAUCAUG [C5G G50A C87U C103G U111C C132U],≤ -4.2
12,GGAUGUUCUCGAUCUAACAAAAAAGACAAAUCUGCCACAAAGCUUGAGAGCAUCUUCGGAUGCAGAGGCGGCAGCCUUCGGUGGAGCGAUAGCGCCAACGUUCUCAACUAUGACACGCAAAACGCGUGCUCCGUUGAAUGGAGUUUAUCAUG [C5G C85A],-1.7
13,GGAUGAUCUCGAUCUAACAAAAAAGACAAAUGUGCCACAAAGCUUGAGAGCAUCUUCGGAUGCAGAGGCGGCAGCCAUCGGUGGCGGGAUAGCGCCAACGUUCUCAACUAUGAUACGCAAAACGCGUGCUCCGUUGAAUGGAGUUUAUCAUG [C5G U6A C32G U77A C87G C114U],≤ -4.2
14,GGAUGUACUCGAUCUAACAAAAAAGACAAAUCGGCCACAAAGCUUGAGAGCAUCUUCGGAUGCAGAGGCGGCAGCCUUCGGUGGCGCGAUGGUGCCAACGUUCUCAACUAUGACACGGAAAGCGCGUGCUCCGUUGAAUGGAGGUUAUCAUG [C5G U7A U33G A91G C93U C118G A122G U144G],≤ -4.2
15,GGAUGUUCUCGAUCUAACAAAAAAGACAAAUCUGCCACAAAGCUUGAGAGCAUCUUCGGAUGCAGAGGCGGCAGCCUUCGGUGGCGCGAUAGCGCCAACGUUAUCAACUAUGACACACAAAACGCGUGCUCCGUUGAAUGGAGUUUAUCAUG [C5G C103A G117A],-2.88
16,GGAUGUUCUCGAUCUAACAAAAAAGACAAAUCUGCCACAAAGCUUGAGAGCAUCUUCGGAUGCAGAGGCGGCAGCCUUCGGUGGCGCGAUAGCGCUAACGUUCUCAACUAUGACACGCAAAACGCGUGCUCCGUUGAAUGGAGUUUAUCAUG [C5G C96U],-0.763
17,GGAUGUUCUCGAUCUAACAAAAAAGACAAAUCUGCCACAAAGCUUGAGAGCAUCUUCGGAUGCAGAGGCGGCAGCCUUCGGUUGCGCGAUAGCGCCAUCGUUCUUAACUAUGACACGCAAAACGCGUGCUCCGUUGAAUGGAGUUUAUCAUG [C5G G83U A98U C105U],-1.03
18,GGAUGUUCUCGAUCUAACAAAAAAGACAAAUCUGCCACAAAGCUUGAGACCAUCUUCGGAUGCAGAGGCGGCAGCCUUCGGUGGUGCGAUAGCGCCAACGUUCUCAACUAUGACACGCAAAACGCGUGCUCCGUUGAAUGGAGUUUAUCAUG [C5G G50C C85U],-3.69
19,GGAUGUUCUCGAUCUAACAAAAAAGACAAAUCUGCCACAAAGCUUGACAGCAUCUUCGGAUCCAGAGGCGGCAGCCUUCGGUGGCGCGAUAGCGCCUACGUUCUCAACUAUGACACGCAAAACGCGUGCUCCGUUGAAUGUAGUUUAUCAUG [C5G G48C G62C A97U G141U],≤ -4.2
